Experimental data from US20250188189A1 (published 2025).
Positions count from the first letter of the chain named.

T1: plasma-derived human activated protein C (APC) (UniProt P04070 43-461)
T1 chain: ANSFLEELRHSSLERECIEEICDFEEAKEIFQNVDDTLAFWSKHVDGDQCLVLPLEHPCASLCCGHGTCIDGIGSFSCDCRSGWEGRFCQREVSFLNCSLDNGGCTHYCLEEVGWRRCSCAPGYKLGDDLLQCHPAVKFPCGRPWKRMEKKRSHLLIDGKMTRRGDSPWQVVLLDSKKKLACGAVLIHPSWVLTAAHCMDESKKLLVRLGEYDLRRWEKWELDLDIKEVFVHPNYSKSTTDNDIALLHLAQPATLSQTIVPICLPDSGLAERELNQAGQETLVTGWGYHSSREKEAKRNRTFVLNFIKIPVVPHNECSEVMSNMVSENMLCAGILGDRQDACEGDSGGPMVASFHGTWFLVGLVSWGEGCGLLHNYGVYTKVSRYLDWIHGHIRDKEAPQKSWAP

B1: TPP-24829 (antibody, V domains shown)
VL: DIVLTQSPASLAVSPGQRATITCKASESVDSFGATFMHWYQQKPGQPPKLLIYLASNRASGVPDRFSGSGSGTDFTLKISRVEAEDVGVYYCQQNNEDPYTFGQGTKLEIK
B2: TPP-24913 (antibody, V domains shown)
VL: EIVLTQSPGTLSLSPGERATLSCRASQSVSSFGATFMHWYLQKPGQSPQLLIYLASNLESGVPARFSGSGSGTDFTLKISRVEAEDVGVYYCQQNNEDPYTFGQGTKLEIK
B3: TPP-24893 (antibody, V domains shown)
VL: B2 VL with Q27E, S30D, L41Q, S47P, Q49K, L58R, E59A, A64D
B4: TPP-24917 (antibody, V domains shown)
VL: B2 VL with L58R, E59A, A64D
B5: TPP-24847 (antibody, V domains shown)
VL: DIVLTQSPASLAVSPGQRATITCKASQSVSSFGATFMHWYLQKPGQSPQLLIYLASNLESGVPARFSGSGSGTDFTLTINPVEADDTANYYCQQNNEDPYTFGQGTKLEIK
B6: TPP-24851 (antibody, V domains shown)
VL: B5 VL with L58R, E59A, A64D
B7: TPP-24841 (antibody, V domains shown)
VL: B1 VL with E27Q, D30S, R58L, A59E, D64A
B8: TPP-24843 (antibody, V domains shown)
VL: B5 VL with L41Q, S47P, Q49K, L58R, E59A, A64D
B9: TPP-29845 (antibody, V domains shown)
VH: EVQLVESGGGLVQPGGSLRLSCAASGFTFSNFYMNWVRQAPGKGLEWVSYISSSSSTIYYADSVKGRFTISRDDSKNSLYLQMNSLKTEDTAVYYCAREGDYFDYWGQGTLVTVSS
VL: EIVLTQSPGTLSLSPGERATLSCRASQSVSSFGATFMHWYQQKPGQPPKLLIYLASNRASGVPDRFSGSGSGTDFTLKISRVEAEDVGVYYCQQNNEDPYTFGQGTKLEIKR
B10: TPP-29848 (antibody, V domains shown)
VH: B9 VH with F32Y
VL: B9 VL with Q27E
B11: TPP-29855 (antibody, V domains shown)
VH: B9 VH with F32Y, S54R
VL: B9 VL
B12: TPP-29850 (antibody, V domains shown)
VH: B9 VH with F32Y
VL: B9 VL with N57W
B13: TPP-29864 (antibody, V domains shown)
VH: B9 VH with F32Y
VL: B9 VL with N57R
B14: TPP-29854 (antibody, V domains shown)
VH: B9 VH with F32Y
VL: B9 VL with A55K
B15: TPP-29861 (antibody, V domains shown)
VH: B9 VH with F32Y, S56R
VL: B9 VL
B16: TPP-26939 (antibody, V domains shown)
VH: EVQLVESGGGLVQPGGSLRLSCAASGFTFSNYYINWVRQAPGKGLEWVGDIRLKSNNYEKHYAESVKGRFTISRDDSKNSLYLQMNSLKTEDTAVYYCAREGDYFDYWGQGTLVTVSS
VL: B9 VL with E1D, G9A, T10S, S12A, L13V, E17Q, L21I, S22T, R24K
B17: TPP-29857 (antibody, V domains shown)
VH: B9 VH with F32Y
VL: B9 VL with Y100W
B18: TPP-29853 (antibody, V domains shown)
VH: B9 VH with F32Y, F103M
VL: B9 VL
B19: TPP-29849 (antibody, V domains shown)
VH: B9 VH with F32Y
VL: B9 VL with S56W
B20: TPP-26922 (antibody, V domains shown)
VH: B16 VH with I34M, N35S
VL: B9 VL
B21: TPP-29852 (antibody, V domains shown)
VH: B9 VH with N31F, F32Y
VL: B9 VL
B22: TPP-29844 (antibody, V domains shown)
VH: B9 VH with N31I, F32Y
VL: B9 VL
B23: TPP-29846 (antibody, V domains shown)
VH: B9 VH with N31P, F32Y
VL: B9 VL
B24: TPP-29858 (antibody, V domains shown)
VH: B9 VH with F32Y
VL: B9 VL with S56R
B25: TPP-29843 (antibody, V domains shown)
VH: B9 VH with F32Y, S53T
VL: B9 VL
B26: TPP-29865 (antibody, V domains shown)
VH: B9 VH with F32Y, M34F
VL: B9 VL
B27: TPP-29866 (antibody, V domains shown)
VH: B9 VH with F32Y, T57P
VL: B9 VL
B28: TPP-29856 (antibody, V domains shown)
VH: B9 VH with F32Y
VL: B9 VL with N57H
B29: TPP-29863 (antibody, V domains shown)
VH: B9 VH with F32Y
VL: B9 VL with S28R
B30: TPP-29860 (antibody, V domains shown)
VH: B9 VH with F32Y
VL: B9 VL with Q93T
B31: TPP-29847 (antibody, V domains shown)
VH: B9 VH with F32Y
VL: B9 VL with Y100F

Target: T1, plasma-derived human activated protein …
Assay: SPR

Kd [nM]	Binder
31.3	B1
85.6	B2
28.6	B3
44.6	B4
85.5	B5
49.8	B6
93.2	B7
48.6	B8

Target: T1, plasma-derived human activated protein …
Assay: SPR; head prints nM; kd/ka gives M

Kd [nM]	Binder
10.7	B9
16.2	B10
26.1	B11
3.13	B12
10.4	B13
25.2	B14
11.3	B15
52.1	B16
13.3	B17
23.3	B18
10.2	B19
91.7	B20
1.18	B21
10.1	B22
6.37	B23
24.9	B24
22.3	B25
12.7	B26
22.2	B27
21.3	B28
23.8	B29
23.9	B30
8.33	B31
